Source: article PMC6613885

Molecular target: GST-LC3B, Q9GZQ8
Assay: GST-pulldown, in vitro-translated 35S-labelled protein, autoradiography quantification
Conditions: chain shown with the change; Means ± SD of 3 independent experiments; parent: est. 1.0; read off a plot

response: 0.6 % binding
B1: Myc-tagged ATG14, full-length, in vitro translated, Q6ZNE5 F64A; F67A; W435A; L438A (protein)
chain: MASPSGKGARALEAPGCGPRPLARDLVDSVDDAEGLYVAVERCPLCNTTRRRLTCAKCVQSGDAVYADGRDRERFIDKKERLSRLKSKQEEFQKEVLKAMEGKWITDQLRWKIMSCKMRIEQLKQTICKGNEEMEKNSEGLLKTKEKNQKLYSRAQRHQEKKEKIQRHNRKLGDLVEKKTIDLRSHYERLANLRRSHILELTSVIFPIEEVKTGVRDPADVSSESDSAMTSSTVSKLAEARRTTYLSGRWVCDDHNGDTSISITGPWISLPNNGDYSAYYSWVEEKKTTQGPDMEQSNPAYTISAALCYATQLVNILSHILDVNLPKKLCNSEFCGENLSKQKFTRAVKKLNANILYLCFSQHVNLDQLQPLHTLRNLMYLVSPSSEHLGRSGPFEVRADLEESMEFVDPGVAGESDESGDERVSDEETDLGTDAENAPSPRFCDIPSQSVEVSQSQSTQASPPIASSSAGGMISSAAASVTSWFKAYTGHR
